{"source": "patent US20240417436A1", "about": "(BRIGHT PEAK THERAPEUTICS, published 2024)", "note": "Bridges are numbered along the chain shown (N, C = ends). Primed or numbered codes have the meaning given here. [ ]: non-standard residue; d: D form. Ygp = O-(8x polyethylene glycol-amino)-tyrosine; Yn3 = O-(9x polyethylene glycol-azido)-tyrosine; PEG9″ = 9x polyethylene glycol; hSer = N[C@@H](CCO)C(=O)O; Nle = CCCC[C@H](N)C(=O)O"}
{"molecular_target": "T1, IL-2 receptor βγ complex on pan T cells (human, UniProt P14784 27-551; P31785 23-369)", "T1 sequence (looked up) 1": "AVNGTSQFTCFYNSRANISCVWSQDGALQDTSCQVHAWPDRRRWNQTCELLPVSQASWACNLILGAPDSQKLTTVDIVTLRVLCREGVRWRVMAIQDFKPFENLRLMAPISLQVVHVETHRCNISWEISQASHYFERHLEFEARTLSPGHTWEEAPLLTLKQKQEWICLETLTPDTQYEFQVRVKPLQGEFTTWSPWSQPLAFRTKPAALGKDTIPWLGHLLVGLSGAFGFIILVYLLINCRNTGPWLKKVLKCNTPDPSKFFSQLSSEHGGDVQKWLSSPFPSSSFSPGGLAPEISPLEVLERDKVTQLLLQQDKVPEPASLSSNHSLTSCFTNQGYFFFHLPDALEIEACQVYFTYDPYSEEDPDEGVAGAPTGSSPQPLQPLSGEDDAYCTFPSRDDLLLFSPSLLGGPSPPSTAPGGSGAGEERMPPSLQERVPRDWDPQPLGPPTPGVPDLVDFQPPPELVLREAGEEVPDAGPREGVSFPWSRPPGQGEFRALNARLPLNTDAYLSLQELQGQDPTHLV", "T1 sequence (looked up) 2": "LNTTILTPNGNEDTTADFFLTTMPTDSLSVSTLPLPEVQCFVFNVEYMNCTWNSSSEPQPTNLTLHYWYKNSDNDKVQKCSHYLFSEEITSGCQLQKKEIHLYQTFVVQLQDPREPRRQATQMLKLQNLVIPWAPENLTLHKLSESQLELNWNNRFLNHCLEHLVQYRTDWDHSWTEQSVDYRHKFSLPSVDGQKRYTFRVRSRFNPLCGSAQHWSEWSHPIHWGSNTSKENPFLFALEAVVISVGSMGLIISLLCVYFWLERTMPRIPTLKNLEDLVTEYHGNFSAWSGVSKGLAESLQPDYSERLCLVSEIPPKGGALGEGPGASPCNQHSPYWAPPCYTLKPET", "experiment": "cell-based or functional assay", "units": {"Average EC50, pSTAT5 assay in pan T cells, MMP2 cleaved molecule": "nM", "Average EC50, pSTAT5 assay in pan T cells, intact molecule": "nM"}}
{"binder": "CMP-301, MMP2 cleaved (ligand, ends and bridges not checked; also: cleavable moiety between Glu23 side chain and N-terminus cut by MMP2, macrocycle opened, cut site not given here) APTSSSTKKTQLQLEHLLLDLQEILNGINNYKNPKLTR[Nle]L[hSer][Yn3]KF[Ygp][Nle]PKKATELKHLQCLEEELKPLEEVL[hSer]LAQSKNFHLRPRDLISNINVIVLELKGSETTF[hSer]CEYADETATIVEFLNRWITFSQSIISTLT", "Average EC50, pSTAT5 assay in pan T cells, MMP2 cleaved molecule": 0.883}
{"binder": "CMP-300, MMP2 cleaved (ligand, ends and bridges not checked; also: cleavable moiety between Glu23 side chain and N-terminus cut by MMP2, macrocycle opened, cut site not given here) APTSSSTKKTQLQLEHLLLDLQEILNGINNYKNPKLTR[Nle]L[hSer][Yn3]KF[Ygp][Nle]PKKATELKHLQCLEEELKPLEEVL[hSer]LAQSKNFHLRPRDLISNINVIVLELKGSETTF[hSer]CEYADETATIVEFLNRWITFSQSIISTLT", "Average EC50, pSTAT5 assay in pan T cells, MMP2 cleaved molecule": 1.73}
{"binder": "CMP-169, MMP2 cleaved (ligand, ends and bridges not checked; also: cleavable moiety between Lys9 and Glu23 side chains cut by MMP2, macrocycle opened, cut site not given here) APTSSSTKKTQLQLEHLLLDLQEILNGINNYKNPKLTR[Nle]L[hSer][Yn3]KF[Ygp][Nle]PKKATELKHLQCLEEELKPLEEVL[hSer]LAQSKNFHLRPRDLISNINVIVLELKGSETTF[hSer]CEYADETATIVEFLNRWITFSQSIISTLT", "Average EC50, pSTAT5 assay in pan T cells, MMP2 cleaved molecule": 5.39}
{"binder": "CMP-164, MMP2 cleaved (ligand, not fully specified (residue 23, N-terminus); ends and bridges not checked; also: macrocycle (Lys23 side chain - cleavable peptide - glutaryl - Ala1) cut by MMP2, cut site not given here) APTSSSTKKTQLQLEHLLLDLQKILNGINNYKNPKLTR[Nle]L[hSer][Yn3]KF[Ygp][Nle]PKKATELKHLQCLEEELKPLEEVL[hSer]LAQSKNFHLRPRDLISNINVIVLELKGSETTF[hSer]CEYADETATIVEFLNRWITFSQSIISTLT", "Average EC50, pSTAT5 assay in pan T cells, MMP2 cleaved molecule": 0.61}
{"binder": "CMP-300 (ligand, bridge N-23; not fully specified (N-terminus, bridges); ends not checked; also: cleavable peptide of the bridge not defined) APTSSSTKKTQLQLEHLLLDLQEILNGINNYKNPKLTR[Nle]L[hSer][Yn3]KF[Ygp][Nle]PKKATELKHLQCLEEELKPLEEVL[hSer]LAQSKNFHLRPRDLISNINVIVLELKGSETTF[hSer]CEYADETATIVEFLNRWITFSQSIISTLT", "Average EC50, pSTAT5 assay in pan T cells, intact molecule": 94.7}
{"binder": "CMP-302, MMP2 cleaved (ligand, ends and bridges not checked; also: cleaved by MMP2 within the cleavable peptide, macrocycle opened, cut site not given here) GPLGLAGAPTSSSTKKTQLQLEHLLLDLQEILNGINNYKNPKLTR[Nle]L[hSer][Yn3]KF[Ygp][Nle]PKKATELKHLQCLEEELKPLEEVL[hSer]LAQSKNFHLRPRDLISNINVIVLELKGSETTF[hSer]CEYADETATIVEFLNRWITFSQSIISTLT", "Average EC50, pSTAT5 assay in pan T cells, MMP2 cleaved molecule": 1.43}
{"binder": "CMP-169 (ligand, bridge 9-23; not fully specified (residue 9, bridges); ends not checked; also: cleavable peptide of the bridge not defined) APTSSSTKKTQLQLEHLLLDLQEILNGINNYKNPKLTR[Nle]L[hSer][Yn3]KF[Ygp][Nle]PKKATELKHLQCLEEELKPLEEVL[hSer]LAQSKNFHLRPRDLISNINVIVLELKGSETTF[hSer]CEYADETATIVEFLNRWITFSQSIISTLT", "Average EC50, pSTAT5 assay in pan T cells, intact molecule": 53.4}
{"binder": "CMP-301 (ligand, bridge N-23; not fully specified (N-terminus, bridges); ends not checked; also: cleavable peptide of the bridge not defined) APTSSSTKKTQLQLEHLLLDLQEILNGINNYKNPKLTR[Nle]L[hSer][Yn3]KF[Ygp][Nle]PKKATELKHLQCLEEELKPLEEVL[hSer]LAQSKNFHLRPRDLISNINVIVLELKGSETTF[hSer]CEYADETATIVEFLNRWITFSQSIISTLT", "Average EC50, pSTAT5 assay in pan T cells, intact molecule": 180}
{"binder": "CMP-302 (ligand, lactam N-30; ends not checked) GPLGLAGAPTSSSTKKTQLQLEHLLLDLQEILNGINNYKNPKLTR[Nle]L[hSer][Yn3]KF[Ygp][Nle]PKKATELKHLQCLEEELKPLEEVL[hSer]LAQSKNFHLRPRDLISNINVIVLELKGSETTF[hSer]CEYADETATIVEFLNRWITFSQSIISTLT", "Average EC50, pSTAT5 assay in pan T cells, intact molecule": 63.4}
{"binder": "CMP-163, MMP2 cleaved (ligand, not fully specified (residue 23, N-terminus); ends and bridges not checked; also: macrocycle (Lys23 side chain - cleavable peptide - PEG4 - glutaryl - Ala1) cut by MMP2, cut site not given here) APTSSSTKKTQLQLEHLLLDLQKILNGINNYKNPKLTR[Nle]L[hSer][Yn3]KF[Ygp][Nle]PKKATELKHLQCLEEELKPLEEVL[hSer]LAQSKNFHLRPRDLISNINVIVLELKGSETTF[hSer]CEYADETATIVEFLNRWITFSQSIISTLT", "Average EC50, pSTAT5 assay in pan T cells, MMP2 cleaved molecule": 0.76}
{"molecular_target": "T1, IL-2 receptor βγ complex on pan T cells", "experiment": "cell-based or functional assay", "remark": "another data set of the same source", "units": {"Average EC50, pSTAT5 assay in pan T cells, MMP2 cleaved molecule": "nM", "Average EC50, pSTAT5 assay in pan T cells, intact molecule": "nM"}}
{"binder": "CMP-162, MMP2 cleaved (ligand, not fully specified (residue 23); ends and bridges not checked; also: cleavable peptide on Lys23 cut by MMP2, remnant stays attached, cut site not given here) APTSSSTKKTQLQLEHLLLDLQKILNGINNYKNPKLTR[Nle]L[hSer][Yn3]KF[Ygp][Nle]PKKATELKHLQCLEEELKPLEEVL[hSer]LAQSKNFHLRPRDLISNINVIVLELKGSETTF[hSer]CEYADETATIVEFLNRWITFSQSIISTLT", "Average EC50, pSTAT5 assay in pan T cells, MMP2 cleaved molecule": 0.758}
{"binder": "CMP-161 (ligand, linker N-32 via PEG9″; ends not checked) PLGLAGAPTSSSTKKTQLQLEHLLLDLQ[Nle]ILEGINNYKNPKLTR[Nle]L[hSer][Yn3]KF[Ygp][Nle]PKKATELKHLQCLEEELKPLEEVL[hSer]LAQSKNFHLRPRDLISNINVIVLELKGSETTF[hSer]CEYADETATIVEFLNRWITFSQSIISTLT", "Average EC50, pSTAT5 assay in pan T cells, intact molecule": 29.4}
{"binder": "CMP-162 (ligand, not fully specified (residue 23); ends and bridges not checked; also: cleavable moiety on Lys23 side chain, structure not given here) APTSSSTKKTQLQLEHLLLDLQKILNGINNYKNPKLTR[Nle]L[hSer][Yn3]KF[Ygp][Nle]PKKATELKHLQCLEEELKPLEEVL[hSer]LAQSKNFHLRPRDLISNINVIVLELKGSETTF[hSer]CEYADETATIVEFLNRWITFSQSIISTLT", "Average EC50, pSTAT5 assay in pan T cells, intact molecule": 2.79}
{"binder": "CMP-161, MMP2 cleaved (ligand, not fully specified; ends and bridges not checked; also: before cut, residues 1..32 linked via PEG9 (Glu32 side chain)) PLGLAGAPTSSSTKKTQLQLEHLLLDLQ[Nle]ILEGINNYKNPKLTR[Nle]L[hSer][Yn3]KF[Ygp][Nle]PKKATELKHLQCLEEELKPLEEVL[hSer]LAQSKNFHLRPRDLISNINVIVLELKGSETTF[hSer]CEYADETATIVEFLNRWITFSQSIISTLT", "Average EC50, pSTAT5 assay in pan T cells, MMP2 cleaved molecule": 3.59}
{"binder": "CMP-160, MMP2 cleaved (ligand, ends and bridges not checked; also: cleavable moiety between Glu26 side chain and N-terminus (via PEG9) cut by MMP2, macrocycle opened, cut site not given here) APTSSSTKKTQLQLEHLLLDLQ[Nle]ILEGINNYKNPKLTR[Nle]L[hSer][Yn3]KF[Ygp][Nle]PKKATELKHLQCLEEELKPLEEVL[hSer]LAQSKNFHLRPRDLISNINVIVLELKGSETTF[hSer]CEYADETATIVEFLNRWITFSQSIISTLT", "Average EC50, pSTAT5 assay in pan T cells, MMP2 cleaved molecule": 2.21}
